Holding throughout (assay): filter
Data set [1] deals with T1, Interleukin-7 (UniProt P13232).
T1 sequence: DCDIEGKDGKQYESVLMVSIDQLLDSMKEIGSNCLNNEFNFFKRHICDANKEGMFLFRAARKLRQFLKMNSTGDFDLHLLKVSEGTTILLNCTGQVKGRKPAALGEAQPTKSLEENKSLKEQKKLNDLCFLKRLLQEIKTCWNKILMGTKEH
To be noted: 5-BrdU replaces T; apparent photocrosslink KD; plateau 50%.

The target in data set [2] is T2, L-Selectin (Homo sapiens) (UniProt P14151).
T2 sequence: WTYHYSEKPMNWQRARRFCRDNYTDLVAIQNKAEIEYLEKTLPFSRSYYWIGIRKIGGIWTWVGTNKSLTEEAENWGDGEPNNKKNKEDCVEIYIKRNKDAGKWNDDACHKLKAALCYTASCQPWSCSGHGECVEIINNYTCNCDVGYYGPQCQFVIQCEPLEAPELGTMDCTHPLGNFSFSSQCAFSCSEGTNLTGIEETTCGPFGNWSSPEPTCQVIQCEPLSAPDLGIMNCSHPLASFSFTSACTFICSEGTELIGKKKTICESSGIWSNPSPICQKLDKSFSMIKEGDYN
The settings on record: 5-BrdU replaces T; apparent photocrosslink KD; plateau 25%.

The target in data set [3] is Coagulation Factor IX (UniProt P00740). The settings on record: 5-BrdU replaces T; apparent photocrosslink KD; plateau 75%.
The target in data set [4] is IGFBP-3 (UniProt P17936). To be noted: 5-BrdU replaces T; apparent photocrosslink KD; plateau 52%.
For data set [5], the target named is alpha-thrombin (Homo sapiens) (UniProt P00734+P00734). The settings on record: 5-BrdU replaces T, apparent photocrosslink KD.
For data set [6], the target named is T3, Coagulation Factor XII (UniProt P00748).
T3 sequence: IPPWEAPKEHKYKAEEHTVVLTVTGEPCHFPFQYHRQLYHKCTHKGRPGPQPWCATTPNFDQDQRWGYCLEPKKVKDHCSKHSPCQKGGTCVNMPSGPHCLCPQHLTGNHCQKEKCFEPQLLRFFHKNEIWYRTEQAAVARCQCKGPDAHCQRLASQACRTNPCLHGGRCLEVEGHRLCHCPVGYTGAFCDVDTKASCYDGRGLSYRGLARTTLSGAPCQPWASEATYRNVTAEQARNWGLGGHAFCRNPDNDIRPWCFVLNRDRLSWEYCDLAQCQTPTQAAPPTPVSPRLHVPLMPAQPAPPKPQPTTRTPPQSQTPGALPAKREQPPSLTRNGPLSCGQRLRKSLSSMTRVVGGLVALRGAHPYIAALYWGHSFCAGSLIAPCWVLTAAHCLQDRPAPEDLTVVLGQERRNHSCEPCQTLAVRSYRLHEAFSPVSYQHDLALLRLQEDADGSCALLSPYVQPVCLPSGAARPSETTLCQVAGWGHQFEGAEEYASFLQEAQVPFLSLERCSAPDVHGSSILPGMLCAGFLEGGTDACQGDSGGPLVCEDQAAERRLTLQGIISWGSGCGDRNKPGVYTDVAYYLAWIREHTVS
To be noted: 5-BrdU replaces T; apparent photocrosslink KD; plateau 45%.

Data set [7] has as its target Serum Amyloid P (UniProt P02743). The settings on record: 5-BrdU replaces T; apparent photocrosslink KD; plateau 55%.
For data set [8], the target named is T4, human neutrophil elastase (hNE) (Homo sapiens) (UniProt P08246).
T4 sequence: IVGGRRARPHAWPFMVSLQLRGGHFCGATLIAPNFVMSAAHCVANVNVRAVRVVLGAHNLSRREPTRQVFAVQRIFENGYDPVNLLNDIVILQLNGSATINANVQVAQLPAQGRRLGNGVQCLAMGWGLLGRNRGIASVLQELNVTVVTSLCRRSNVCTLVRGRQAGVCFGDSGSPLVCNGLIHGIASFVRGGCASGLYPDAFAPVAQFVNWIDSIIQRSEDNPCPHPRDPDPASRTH
To be noted: 5-BrdU replaces T.

For data set [9], the target named is Hepatocyte Growth Factor (HGF) (UniProt P14210+P14210). The settings on record: 5-BrdU replaces T; apparent photocrosslink KD; plateau 73%.
Data set [10] deals with Transforming Growth Factor beta1 (TGF-beta1) (UniProt P01137). The settings on record: 5-BrdU replaces T, apparent photocrosslink KD.
Data set [11] concerns the target T5, Kininogen (UniProt P01042).
T5 sequence: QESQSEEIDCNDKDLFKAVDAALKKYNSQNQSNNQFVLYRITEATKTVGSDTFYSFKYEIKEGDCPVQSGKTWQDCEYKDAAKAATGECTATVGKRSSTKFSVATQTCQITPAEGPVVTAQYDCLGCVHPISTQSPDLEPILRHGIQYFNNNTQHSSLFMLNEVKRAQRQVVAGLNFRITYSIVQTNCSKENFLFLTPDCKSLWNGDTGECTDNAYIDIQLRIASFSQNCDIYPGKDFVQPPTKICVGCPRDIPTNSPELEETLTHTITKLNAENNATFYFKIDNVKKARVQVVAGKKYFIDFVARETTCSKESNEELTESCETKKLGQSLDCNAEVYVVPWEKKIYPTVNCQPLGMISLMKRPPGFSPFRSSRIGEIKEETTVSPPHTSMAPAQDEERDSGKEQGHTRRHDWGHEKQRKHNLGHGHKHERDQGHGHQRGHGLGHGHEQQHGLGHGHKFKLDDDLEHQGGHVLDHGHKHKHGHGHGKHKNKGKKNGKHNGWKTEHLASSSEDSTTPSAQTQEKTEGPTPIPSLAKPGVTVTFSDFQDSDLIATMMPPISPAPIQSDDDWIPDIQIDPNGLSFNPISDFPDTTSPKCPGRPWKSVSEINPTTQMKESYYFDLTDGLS
The settings on record: 5-BrdU replaces T; apparent photocrosslink KD; plateau 64%.

The target in data set [12] is Factor H (UniProt P08603). To be noted: 5-BrdU replaces T; apparent photocrosslink KD; plateau 65%; abstract prints Factor II.
Data set [13] has as its target Thrombopoietin (Tpo) (UniProt P40225). The settings on record: 5-BrdU replaces T; apparent photocrosslink KD; plateau 50%.
Data set [14] has as its target T6, Endostatin (UniProt P39060).
T6 sequence: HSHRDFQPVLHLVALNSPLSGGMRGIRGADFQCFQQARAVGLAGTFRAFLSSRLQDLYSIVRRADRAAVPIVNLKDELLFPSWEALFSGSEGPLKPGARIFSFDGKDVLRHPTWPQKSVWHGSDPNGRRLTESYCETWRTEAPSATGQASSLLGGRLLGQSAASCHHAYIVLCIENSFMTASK
The settings on record: 5-BrdU replaces T; apparent photocrosslink KD; plateau 75%.

The subject of data set [15] is Collagen. To be noted: 5-BrdU replaces T; apparent photocrosslink KD; plateau 25%.
Data set [16] addresses CTLA-4 Fc (UniProt P16410). To be noted: 5-BrdU replaces T; apparent photocrosslink KD; plateau 7%.
Data set [17] has as its target Plasmin (UniProt P00747+P00747). The settings on record: 5-BrdU replaces T; apparent photocrosslink KD; plateau 50%.

Transforming Growth Factor beta1 (TGF-beta1), sequence (P01137 279-390): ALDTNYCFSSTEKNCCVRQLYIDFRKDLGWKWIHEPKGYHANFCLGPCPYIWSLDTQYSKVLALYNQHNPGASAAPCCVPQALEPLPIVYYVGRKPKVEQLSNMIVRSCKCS
Hepatocyte Growth Factor (HGF), sequence (P14210 32-494, chain 1 of 2): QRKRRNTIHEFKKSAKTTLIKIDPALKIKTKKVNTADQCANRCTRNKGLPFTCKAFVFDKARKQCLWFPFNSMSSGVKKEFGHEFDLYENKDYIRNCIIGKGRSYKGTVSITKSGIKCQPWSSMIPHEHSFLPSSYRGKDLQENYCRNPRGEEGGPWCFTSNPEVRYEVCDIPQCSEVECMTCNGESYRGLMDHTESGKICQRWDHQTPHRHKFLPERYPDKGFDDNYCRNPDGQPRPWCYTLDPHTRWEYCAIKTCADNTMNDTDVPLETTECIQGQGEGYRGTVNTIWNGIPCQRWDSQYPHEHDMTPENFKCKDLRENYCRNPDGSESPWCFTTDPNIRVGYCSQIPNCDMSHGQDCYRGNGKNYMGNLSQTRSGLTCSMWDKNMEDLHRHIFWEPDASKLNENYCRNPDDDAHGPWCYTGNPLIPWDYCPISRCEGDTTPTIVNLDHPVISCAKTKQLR
Hepatocyte Growth Factor (HGF), sequence (P14210 495-728, chain 2 of 2): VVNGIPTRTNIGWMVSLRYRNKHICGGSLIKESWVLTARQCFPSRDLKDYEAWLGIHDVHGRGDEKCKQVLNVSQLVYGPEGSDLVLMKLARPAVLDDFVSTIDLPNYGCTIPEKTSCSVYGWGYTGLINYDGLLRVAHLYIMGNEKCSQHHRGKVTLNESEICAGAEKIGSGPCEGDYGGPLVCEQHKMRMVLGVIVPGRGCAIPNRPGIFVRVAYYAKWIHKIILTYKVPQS
Plasmin, sequence (P00747 97-580, chain 1 of 2): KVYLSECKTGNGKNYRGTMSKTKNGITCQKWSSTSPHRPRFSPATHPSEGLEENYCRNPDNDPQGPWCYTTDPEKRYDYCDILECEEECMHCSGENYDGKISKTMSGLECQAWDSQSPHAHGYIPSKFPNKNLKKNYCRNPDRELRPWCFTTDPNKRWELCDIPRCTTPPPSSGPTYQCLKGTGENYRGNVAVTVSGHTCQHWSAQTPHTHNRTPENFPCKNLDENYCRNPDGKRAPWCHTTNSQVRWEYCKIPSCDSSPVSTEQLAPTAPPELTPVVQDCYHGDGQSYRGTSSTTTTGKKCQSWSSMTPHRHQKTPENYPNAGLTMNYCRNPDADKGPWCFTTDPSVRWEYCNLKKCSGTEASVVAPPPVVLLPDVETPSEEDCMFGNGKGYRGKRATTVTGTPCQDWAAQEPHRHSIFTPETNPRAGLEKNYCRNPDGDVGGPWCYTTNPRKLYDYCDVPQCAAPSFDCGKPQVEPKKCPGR
Plasmin, sequence (P00747 581-810, chain 2 of 2): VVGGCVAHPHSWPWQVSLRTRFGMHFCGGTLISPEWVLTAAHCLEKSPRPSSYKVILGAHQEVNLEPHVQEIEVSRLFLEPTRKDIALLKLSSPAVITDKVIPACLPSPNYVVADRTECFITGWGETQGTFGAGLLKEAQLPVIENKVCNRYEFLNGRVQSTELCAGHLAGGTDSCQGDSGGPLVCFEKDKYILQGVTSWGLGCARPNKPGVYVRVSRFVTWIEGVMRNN
CTLA-4 Fc, sequence (P16410 36-161): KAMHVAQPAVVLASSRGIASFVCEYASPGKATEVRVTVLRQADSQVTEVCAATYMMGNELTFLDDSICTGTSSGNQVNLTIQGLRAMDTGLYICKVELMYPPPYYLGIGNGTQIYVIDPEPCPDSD
Factor H, sequence (P08603 19-1231): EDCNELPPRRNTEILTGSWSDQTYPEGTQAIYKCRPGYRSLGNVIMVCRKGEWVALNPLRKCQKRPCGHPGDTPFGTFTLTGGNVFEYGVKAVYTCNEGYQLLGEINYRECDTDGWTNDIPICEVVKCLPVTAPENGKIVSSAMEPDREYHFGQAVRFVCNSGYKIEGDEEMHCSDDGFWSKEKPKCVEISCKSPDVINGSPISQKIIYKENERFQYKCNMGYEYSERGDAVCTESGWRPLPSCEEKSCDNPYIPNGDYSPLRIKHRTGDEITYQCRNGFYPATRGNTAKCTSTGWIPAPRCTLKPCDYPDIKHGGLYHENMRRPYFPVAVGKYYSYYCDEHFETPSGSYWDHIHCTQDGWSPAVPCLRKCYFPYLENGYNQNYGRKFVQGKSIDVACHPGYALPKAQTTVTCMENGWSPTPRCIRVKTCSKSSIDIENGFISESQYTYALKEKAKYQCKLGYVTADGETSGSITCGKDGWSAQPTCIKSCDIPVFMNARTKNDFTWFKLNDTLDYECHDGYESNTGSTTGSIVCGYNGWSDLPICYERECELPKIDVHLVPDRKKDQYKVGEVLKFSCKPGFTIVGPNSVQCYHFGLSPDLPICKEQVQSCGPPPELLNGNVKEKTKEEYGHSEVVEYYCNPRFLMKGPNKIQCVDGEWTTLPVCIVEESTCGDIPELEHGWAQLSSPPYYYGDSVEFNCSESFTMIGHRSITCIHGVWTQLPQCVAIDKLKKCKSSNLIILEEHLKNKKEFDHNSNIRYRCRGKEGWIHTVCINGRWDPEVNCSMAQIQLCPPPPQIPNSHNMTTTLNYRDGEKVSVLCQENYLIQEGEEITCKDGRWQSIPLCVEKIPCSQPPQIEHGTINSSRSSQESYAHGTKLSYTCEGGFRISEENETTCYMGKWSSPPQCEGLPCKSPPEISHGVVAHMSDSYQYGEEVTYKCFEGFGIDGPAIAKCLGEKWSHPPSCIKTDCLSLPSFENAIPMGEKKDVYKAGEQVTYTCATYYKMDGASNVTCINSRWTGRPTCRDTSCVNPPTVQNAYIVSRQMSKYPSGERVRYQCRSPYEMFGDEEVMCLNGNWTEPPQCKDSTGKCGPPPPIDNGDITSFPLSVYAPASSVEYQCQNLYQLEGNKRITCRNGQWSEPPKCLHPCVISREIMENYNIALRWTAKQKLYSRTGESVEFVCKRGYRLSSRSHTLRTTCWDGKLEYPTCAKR
IGFBP-3, sequence (P17936 28-291): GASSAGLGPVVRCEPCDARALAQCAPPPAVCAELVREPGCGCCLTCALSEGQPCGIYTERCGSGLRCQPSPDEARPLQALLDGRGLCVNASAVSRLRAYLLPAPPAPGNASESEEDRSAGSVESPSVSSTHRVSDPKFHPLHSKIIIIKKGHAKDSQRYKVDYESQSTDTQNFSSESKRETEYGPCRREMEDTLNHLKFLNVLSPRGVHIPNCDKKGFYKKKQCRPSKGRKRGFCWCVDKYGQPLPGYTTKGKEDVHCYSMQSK
Thrombopoietin (Tpo), sequence (P40225 22-353): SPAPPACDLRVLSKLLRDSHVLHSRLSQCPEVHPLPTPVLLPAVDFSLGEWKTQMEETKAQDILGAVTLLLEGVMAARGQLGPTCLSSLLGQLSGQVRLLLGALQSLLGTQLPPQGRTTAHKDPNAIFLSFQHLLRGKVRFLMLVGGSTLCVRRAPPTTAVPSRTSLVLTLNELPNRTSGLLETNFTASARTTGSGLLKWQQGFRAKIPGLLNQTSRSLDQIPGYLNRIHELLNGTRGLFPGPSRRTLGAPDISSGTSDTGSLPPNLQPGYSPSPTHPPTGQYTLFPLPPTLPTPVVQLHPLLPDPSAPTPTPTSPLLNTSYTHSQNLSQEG
Serum Amyloid P, sequence (P02743 20-223): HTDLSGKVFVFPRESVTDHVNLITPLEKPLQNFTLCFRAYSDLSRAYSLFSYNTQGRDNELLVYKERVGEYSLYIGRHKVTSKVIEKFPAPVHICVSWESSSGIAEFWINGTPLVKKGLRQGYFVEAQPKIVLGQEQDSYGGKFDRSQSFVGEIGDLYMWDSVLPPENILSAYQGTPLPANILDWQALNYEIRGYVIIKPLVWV

Turning to “ATATATATGGGAGGACGATGCGGGCTGAAAGGAAACGGACGATTGAGCTTCCCCTTACCTCTCCAGACGACGAGCGGGAAAAAAAA [IL-7 pool 042 clone 5]”, in data set [1], the Kd turned out to be 11 nM.

With “ATATATATGGGAGGACGATGCGGCCGGTTCACGTGCACCATCCGTGTGCTAGACAGACGACGAGCGGGAAAAAAAA [L-Selectin pool 048 clone 21]”, in [2], the Kd is 7 nM.

“ATATATATGGGAGGACGATGCGGGCGTCTGGGATTTGGACTTCTTCGCTAGCTCAGACGACGAGCGGGAAAAAAAA [Factor IX pool 87 clone 50]”: in data set [3], the Kd was found to be 6.2 nM.

As to “ATATATATGGGAGGACGATGCGGGCAAAGTGTTATTTCTTGATCTGTTTCACCCAGACGACGAGCGGGAAAAAAAA [IGFBP-3 pool 112 clone 65]”, the Kd in [4] was determined as 6 nM.

With “ATATATATGGGAGGACGATGCGGGAGGAGCTGATGGGTGGTGAGGTTGGCCAGACGACGAGCGGGAAAAAAAA [Thrombin pool 5 clone 51]”, the Kd in data set [5] (plateau 6%, rate 0.4) stood at 0.04 nM.

Turning to “ATATATATGGGAGGACGATGCGGGCAGGACGGACAGCAAGGGGTGAGCACGAGCAGACGACGAGCGGGAAAAAAAA [Thrombin pool 5 clone 75]”, in [5] (plateau 62%), the Kd came to 110 nM.

“ATATATATGGGAGGACGATGCGGCTGCGTGACAGTTATACTGTTATTGGTCTTCAGACGACGAGCGGGAAAAAAAA [Factor XII pool 89 clone 51]”: the Kd in data set [6] was 53 nM.

On to “ATATATATGGGAGGACGATGCGGGCCGACTCTGAGGAAAAGGTTTTATGTATGGCTACCCCTGCAGACGACGAGCGGGAAAAAAAA [Serum Amyloid P pool 051 clone 50]”, for which the Kd in data set [7] is 0.54 nM.

On to “ATATATATGGGAGGACGATGCGGGCACATCACTCTATCATTTGCTACGGTACCGGAGTGAGTCCAGACGACGAGCGGGAAAAAAAA [hNE pool 2 clone 18]”, for which, in [8] (apparent KD from photocrosslinking 308 nm, plateau 37%, rate 0.72 J-1 cm2), the Kd worked out at 21 nM.

In the case of “ATATATATGGGAGGACGATGCGGGCAGTAGGTTGGGTAGGGTGGTCTGCTCAGACGACGAGCGGGAAAAAAAA [Thrombin pool 5 clone 4]”, the Kd in data set [5] (plateau 25%, rate 0.4) stood at 0.03 nM.

In the case of “ATATATATGGGAGGACGATGCGGGCGGTTGGCGTGGTTGGAAATGTCCCGTCAGACGACGAGCGGGAAAAAAAA [Thrombin pool 5 clone 77]”, in [5] (plateau 9%, rate 0.64, Table 7 sequence differs from listing (GGTTGCTGTGG vs ggttggcgtgg)), the Kd turned out to be 0.05 nM.

Turning to “ATATATATGGGAGGACGATGCGGGACGACTAGCCTAGTGCCCTTACGATCACCCAGACGACGAGCGGGAAAAAAAA [HGF pool 107 clone 23]”, the Kd in data set [9] was 0.53 nM.

For the sequence “ATATATATGGGAGGACGATGCGGGCAGCAACCTACCTTACCTTCCCCTAGCCTACCTTATCCCCAGACGACGAGCGGGAAAAAAAA [TGF-beta1 pool 015 clone 82]”, the Kd in [10] (plateau 100%, rate 0.54) came out at 7.1 nM.

For “ATATATATGGGAGGACGATGCGGGACGCTAGTACCCTGGCTGGCTTGGTTGGGCAGACGACGAGCGGGAAAAAAAA [Kininogen pool 046 clone 31]”, the Kd in [11] stood at 7 nM.

Consider “ATATATATGGGAGGACGATGCGGCCTCATAAAGTTACATCGGCAATTCTTCTCCAGACGACGAGCGGGAAAAAAAA [Factor H pool 94 clone 12]”, for which the Kd in [12] amounted to 14 nM.

As to “ATATATATGGGAGGACGATGCGGGCACCTTTCTTACATCTTGGCTTCATTCTTGCACCATTGGCAGACGACGAGCGGGAAAAAAAA [TGF-beta1 pool 015 clone 83]”, the Kd in data set [10] (plateau 80%, rate 0.82) amounted to 4.3 nM.

Consider “ATATATATGGGAGGACGATGCGGGACCATCCAATACCTTCCGTAACACTTTCCTTCTTCCTTCCAGACGACGAGCGGGAAAAAAAA [TGF-beta1 pool 015 clone 81]”, for which the Kd in data set [10] (plateau 80%, rate 0.58) is 7.2 nM.

As for “ATATATATGGGAGGACGATGCGGGCACACCCAACCTTGCTTCTTCAATCTAATCTCCACTTTGCAGACGACGAGCGGGAAAAAAAA [Tpo pool 059 clone 34]”, the Kd in data set [13] is 64 nM.

Take “ATATATATGGGAGGACGATGCGGCACAATGAAGTCACTCTTGACGCTTGTATTCAGACGACGAGCGGGAAAAAAAA [Endostatin pool 92 clone 4]”: the Kd in data set [14] came out at 2.7 nM.

As to “ATATATATGGGAGGACGATGCGGGCACAACCTTACCACCCTAGCCTACCCCTAACCTCCTGTCCAGACGACGAGCGGGAAAAAAAA [TGF-beta1 pool 015 clone 74]”, the Kd in data set [10] (plateau 79%, rate 0.34) was 4.9 nM.

For “ATATATATGGGAGGACGATGCGGCAACCCACCACTCTATCTTTCCCATAACTGCAGACGACGAGCGGGAAAAAAAA [hNE pool 2 clone 43]”, in data set [8] (apparent photocrosslink KD, plateau 27%, rate 0.14), the Kd turned out to be 61 nM.

As for “ATATATATGGGAGGACGATGCGGGCCAATCTGTCTTCTTTCCATCCTTATGATCAGACGACGAGCGGGAAAAAAAA [hNE pool 2 clone 73]”, the Kd in data set [8] (apparent photocrosslink KD, plateau 32%, rate 0.28) was 29 nM.

As for “ATATATATGGGAGGACGATGCGGCTACTCCTCCTTAACCCGGGTCTTGTGGCCCAGACGACGAGCGGGAAAAAAAA [Collagen pool 100 clone 36]”, in data set [15], the Kd came to 0.75 nM.

With “ATATATATGGGAGGACGATGCGGGACGCTAATACTTCTGGAGTGGAACGGTTTCAGACGACGAGCGGGAAAAAAAA [CTLA-4 Fc pool 101 clone 60]”, the Kd in data set [16] amounted to 8 nM.

For the sequence “ATATATATGGGAGGACGATGCGGCAACCCTGACACCACGTTGTTTCTCCTTTTGGGGTAACCGCAGACGACGAGCGGGAAAAAAAA [Plasmin pool 050 clone 25]”, the Kd in [17] is 78 nM.

Source of the values: patent US20030054360.
